In experiment [1] the target is T1, biotinylated recombinant mouse IL-12Rβ2 (mouse, UniProt P97378 24-637, random biotinylated).
T1 construct: Recombinant protein produced in-house; also called mIL-12RB2; mouse IL-12RB2
T1 sequence: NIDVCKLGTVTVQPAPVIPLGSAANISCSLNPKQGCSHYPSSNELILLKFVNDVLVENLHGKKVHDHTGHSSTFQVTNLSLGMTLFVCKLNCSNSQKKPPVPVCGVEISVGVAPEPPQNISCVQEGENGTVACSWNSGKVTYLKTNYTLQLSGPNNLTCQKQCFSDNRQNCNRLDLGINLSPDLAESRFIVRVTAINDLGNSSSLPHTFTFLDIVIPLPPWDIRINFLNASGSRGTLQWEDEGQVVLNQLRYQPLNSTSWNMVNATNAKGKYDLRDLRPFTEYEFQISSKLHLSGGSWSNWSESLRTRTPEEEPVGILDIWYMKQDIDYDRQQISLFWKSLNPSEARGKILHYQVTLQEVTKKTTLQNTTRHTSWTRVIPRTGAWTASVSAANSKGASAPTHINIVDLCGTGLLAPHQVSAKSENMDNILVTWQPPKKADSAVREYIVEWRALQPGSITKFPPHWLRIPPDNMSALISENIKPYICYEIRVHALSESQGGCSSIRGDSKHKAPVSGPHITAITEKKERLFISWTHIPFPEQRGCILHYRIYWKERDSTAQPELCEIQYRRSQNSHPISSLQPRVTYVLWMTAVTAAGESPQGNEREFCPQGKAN
Put plainly: BLI, P.E., off-rate ranking. In general terms: In BLI a coated tip is dipped into the sample, and binding shifts an interference pattern.

Experiment [2] deals with T2, biotinylated recombinant human IL-12Rβ2 (human, UniProt Q99665 24-622, random biotinylated).
T2 construct: Recombinant protein produced in-house; also called hIL-12RB2; human IL-12RB2
T2 sequence: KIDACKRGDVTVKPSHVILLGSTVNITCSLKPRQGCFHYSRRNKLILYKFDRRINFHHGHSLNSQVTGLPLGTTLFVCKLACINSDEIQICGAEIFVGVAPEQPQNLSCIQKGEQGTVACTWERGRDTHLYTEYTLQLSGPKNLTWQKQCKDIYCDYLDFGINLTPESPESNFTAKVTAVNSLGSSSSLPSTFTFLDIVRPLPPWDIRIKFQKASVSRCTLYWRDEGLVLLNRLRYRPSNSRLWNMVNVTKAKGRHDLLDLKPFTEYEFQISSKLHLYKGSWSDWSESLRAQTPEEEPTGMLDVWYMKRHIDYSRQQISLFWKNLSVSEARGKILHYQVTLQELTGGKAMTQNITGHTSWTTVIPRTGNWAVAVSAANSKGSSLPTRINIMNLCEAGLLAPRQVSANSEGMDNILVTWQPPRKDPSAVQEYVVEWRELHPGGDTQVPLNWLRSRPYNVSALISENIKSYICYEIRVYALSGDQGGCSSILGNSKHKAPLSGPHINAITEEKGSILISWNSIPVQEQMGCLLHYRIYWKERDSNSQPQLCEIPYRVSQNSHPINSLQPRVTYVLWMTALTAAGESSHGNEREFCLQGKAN
Kind of experiment: BLI, P.E., off-rate ranking.

The target in experiment [3] is T1, biotinylated recombinant mouse IL-12Rβ2. Put plainly: ELISA, P.E., biotinylated antigen.
Experiment [4] has as its target T2, biotinylated recombinant human IL-12Rβ2. Kind of experiment: ELISA, P.E., biotinylated antigen. For orientation: An ELISA detects its analyte on a solid surface through an enzyme-linked reagent.
In experiment [5] the target is T3, biotinylated recombinant mouse IL-12Rβ2 (mouse, UniProt P97378 24-637, random biotinylated).
T3 construct: Recombinant protein produced in-house, biotinylated; also called mIL-12RB2; mouse IL-12RB2
T3 sequence: T1 sequence
Kind of experiment: ELISA, periplasmic extract on biotinylated mIL-12Rβ2, signal over control wells.

Experiment [6] deals with biotinylated recombinant human IL-12Rβ2 (human) (UniProt Q99665). Kind of experiment: ELISA, periplasmic extract on biotinylated hIL-12Rβ2, signal over control wells.
Experiment [7] deals with T4, mouse IL-12Rβ2 expressed on cells (mouse, UniProt P97378 24-874).
T4 construct: HEK293T cells, stably transduced (cDNA NM_008354); also called mIL-12RB2
T4 sequence: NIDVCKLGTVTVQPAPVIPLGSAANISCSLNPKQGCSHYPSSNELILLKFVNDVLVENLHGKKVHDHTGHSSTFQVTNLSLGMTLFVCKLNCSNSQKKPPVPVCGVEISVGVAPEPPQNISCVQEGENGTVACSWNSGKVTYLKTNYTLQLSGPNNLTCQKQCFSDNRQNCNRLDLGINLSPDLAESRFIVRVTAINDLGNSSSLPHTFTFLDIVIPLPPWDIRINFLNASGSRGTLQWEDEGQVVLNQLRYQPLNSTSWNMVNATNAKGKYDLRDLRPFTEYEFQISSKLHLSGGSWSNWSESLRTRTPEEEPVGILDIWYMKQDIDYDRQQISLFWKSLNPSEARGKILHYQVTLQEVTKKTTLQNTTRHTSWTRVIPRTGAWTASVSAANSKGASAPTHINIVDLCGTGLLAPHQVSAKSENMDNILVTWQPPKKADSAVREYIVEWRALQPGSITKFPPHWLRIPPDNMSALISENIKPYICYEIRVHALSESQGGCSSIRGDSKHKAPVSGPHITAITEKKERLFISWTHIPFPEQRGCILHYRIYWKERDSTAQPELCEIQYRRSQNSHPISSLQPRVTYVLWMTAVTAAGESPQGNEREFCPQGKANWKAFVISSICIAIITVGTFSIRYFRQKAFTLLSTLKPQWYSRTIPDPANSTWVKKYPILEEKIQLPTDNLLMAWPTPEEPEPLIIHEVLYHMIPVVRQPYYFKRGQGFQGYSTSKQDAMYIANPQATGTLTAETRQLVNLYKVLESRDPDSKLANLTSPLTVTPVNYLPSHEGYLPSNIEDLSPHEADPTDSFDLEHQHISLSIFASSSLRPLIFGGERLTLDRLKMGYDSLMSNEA
Put plainly: flow cytometry, P.E. VHH on HEK293T cells stably expressing mIL-12RB2. (A flow cytometer gives signals particle by particle.)

In experiment [8] the target is T5, biotinylated recombinant mouse IL-12Rβ2 (produced in-house) (mouse, UniProt P97378 24-637, random biotinylated).
T5 construct: also called mIL-12RB2; mIL12RB2
T5 sequence: T1 sequence
Kind of experiment: ELISA, P.E. VHH on biotinylated mIL-12RB2, signal ratio to control well.

Experiment [9] addresses T4, mouse IL-12Rβ2 expressed on cells. Kind of experiment: flow cytometry, P.E. VHH on HEK293T cells expressing mIL-12RB2.
Experiment [10] addresses T6, biotinylated recombinant human IL-12Rβ2 (produced in-house) (human, UniProt Q99665 24-622, random biotinylated).
T6 construct: also called hIL-12RB2; hIL12RB2
T6 sequence: T2 sequence
Kind of experiment: ELISA, P.E. VHH on biotinylated hIL-12RB2, signal ratio to control well.

Experiment [11] deals with T6, biotinylated recombinant human IL-12Rβ2 …. Kind of experiment: ELISA, P.E. VHH on biotinylated hIL-12RB2.
Experiment [12] deals with biotinylated recombinant mouse IL-12Rβ2 (mouse) (UniProt P97378). Kind of experiment: ELISA, P.E., biotinylated antigen.

Substitutions are numbered along the chain they refer to.

In general, koff refers to the rate constant with which the complex falls apart.

B1: anti-IL-12Rβ2 VHH clone 3CRH83 (clone ID 20390) (VHH, not shown: small tags and cut ends)
VHH: QVQLQESGGGLVQAGGSLKLSCAASGNTFSINAMAWYRQAPGQELELVAAISDVGNTIYADSMKGRFTISRGNADNTVYLQMNSLKPEDTATYYCNAGTFYTSPGDSYYRGYDFWGQGTQVTVSS
notes: periplasmic extract
On to B1, for which, in [1], the Response amounted to 1.35 and the koff was found to be 0.00722 s⁻¹. Further, in experiment [2], the Response was found to be 0.693 and the koff is 0.00528 s⁻¹. For the same molecule, in experiment [3], the “ELISA mIL-12RB2/control” value worked out at 14. The “ELISA hIL-12RB2/control” value in experiment [4] was determined as 8.46.

B2: anti-IL-12Rβ2 VHH clone 20450 (VHH, not shown: small tags and cut ends)
VHH: QVQLQESGGGLVQPGGSLRLSCAASGFTISNYAMSWVRQAPGKGLEWVSSIGSNIASTNYADSVKGRFTISRDNAKNTLYLQMNSLKPEDTAVYYCAKASQNHSPPGQGTQVTVSS
notes: tested as periplasmic extract; also called 2CRM61
On to B2, for which the “ELISA binding mIL-12RB2/control” value in experiment [5] was 18 ratio. Also, the ELISA binding hIL-12RB2/control in [6] amounted to 2.18.

B3: anti-IL-12Rβ2 VHH clone 20460 (VHH, not shown: small tags and cut ends)
VHH: B2 VHH with P14A, I29L, S30G, N31S, G52S, N54S, I55G, A56T, S57N, Q111P
notes: tested as periplasmic extract; also called 3CRM63
With B3, in [5], the “ELISA binding mIL-12RB2/control” value is 16.6 ratio. The ELISA binding hIL-12RB2/control in experiment [6] was 2.43.

B4: anti-IL-12Rβ2 VHH clone 2CAMS52 (VHH, not shown: small tags and cut ends)
VHH: QVQLQESGGGLVQPGASLRLSCATSGPTLSTYAMGWFRQAPGKEREVVATISWSGGRVTYVDSVKGRFTISRDNAKNTAYLQMNRLRPDDTAVYTCAARESDYGAYDYWGQGTQVTVSS
notes: tested as periplasmic extract; also called 20535; 2CAMSSZ
For the molecule B4, in [7], the “% cells bound” value is 60.9% and the dMFI worked out at 342. The “ELISA mIL12RB2/control” value in [8] was found to be 5.41. In experiment [9], the “% cells bound” value worked out at 60.9% and the dMFI is 342. The “ELISA hIL12RB2/control” value in [10] is 0.97. The binding result in experiment [11] is reported as “no binding”.

B5: anti-IL-12Rβ2 VHH clone 3CAM57 (VHH, not shown: small tags and cut ends)
VHH: QVQLQESGGGLVQAGGSLRLSCTPSGRTFSTLAMGWFRQAPGKEREVVATISWSGGRTYYASSVKSRFTISRDNAKNTAYLQMNSLRPDDTAVYYCAARGTDYGAYDYWGQGTQVTVSS
notes: tested as periplasmic extract; also called 20512; 3CAMS7
Regarding B5, the “% cells bound” value in experiment [7] and in experiment [9] was 62.2% throughout. Further, the dMFI in experiment [7] and in experiment [9] was 351 throughout. Also, the “ELISA mIL12RB2/control” value in experiment [8] was found to be 47.4. The “ELISA hIL12RB2/control” value in experiment [10] was determined as 1.31. In addition, the binding result in experiment [11] was “no binding”.

B6: anti-IL-12Rβ2 VHH clone 3CAM65 (VHH, not shown: small tags and cut ends)
VHH: QVQLQESGGGLVQAGGSLRLSCAPSGRTFTTYVMGWFRQAPGKEREFVAHISWSGGRTYYADSVKGRFTISRDNAKNTSYLQMNSLKPEDTAVYYCAAARSDAVRIGYAEGYEYWGQGTQVTVSS
notes: tested as periplasmic extract; also called 20513
Take B6: the “% cells bound” value in experiment [7] and in [9] was 57.9% each time. Further, the dMFI in [7] and in [9] was 315 throughout. Besides, the “ELISA mIL12RB2/control” value in experiment [8] came to 5.98. Moreover, in [10], the “ELISA hIL12RB2/control” value is 1.25. Also, the binding result in experiment [11] was “no binding”.

B7: anti-IL-12Rβ2 VHH clone 3CAM1 (VHH, not shown: small tags and cut ends)
VHH: QVQLQESGGGLVQAGGSLRLSCAASGRTFGSHRMGWFRQAPGQEREFVAAIAWRGGTQYYTDSVKGRFTISRDNANNTVYLQMNSLKPEDAAVYYCVAGEGSSWGDITDPRRYVFWGQGTQVTVSS
notes: tested as periplasmic extract
In the case of B7, in experiment [7], the “% cells bound” value is 63% and the dMFI came to 376. The “ELISA mIL12RB2/control” value in experiment [8] stood at 3.3. Also, in [9], the “% cells bound” value worked out at 63% and the dMFI worked out at 376. Moreover, the “ELISA hIL12RB2/control” value in experiment [10] was found to be 1.2. Further, the binding result in experiment [11] is recorded as “no binding”.

B8: anti-IL-12Rβ2 VHH clone 3CRH17 (clone ID 20376) (VHH, not shown: small tags and cut ends)
VHH: QVQLQESGGGLVQAGGSLVLSCAASGSAALIFLMSWYRQAPGKQRELVAEVSRYGSTTYADSVEGRFTISRDNAKNIVDLQMNSLKPEDTAVYYCKADQYYGDSLRSSWGRGTQVTVSS
notes: periplasmic extract
Turning to B8, in experiment [2], the Response is 0.53 and the koff is 0.00446 s⁻¹. Besides, in [4], the “ELISA hIL-12RB2/control” value was determined as 9.8. Also, in experiment [12], the ELISA mIL-12RB2/control was 2.85.

B9: anti-IL-12Rβ2 VHH clone 3CRH67 (clone ID 20387) (VHH, not shown: small tags and cut ends)
VHH: B8 VHH with V92A
notes: periplasmic extract
B9: in experiment [2], the Response was 0.617 and the off-rate constant (koff) came out at 0.00495 s⁻¹. The “ELISA hIL-12RB2/control” value in experiment [4] turned out to be 10. Also, the ELISA mIL-12RB2/control in [12] was 2.11.
